The assay addresses Gal80p (Saccharomyces cerevisiae) (UniProt P04387). The experiment in a line: cell-based or functional assay.

The results in this text go back to patent publication US20250340602A1.

Chain of UniProt P04387 (P04387 whole entry): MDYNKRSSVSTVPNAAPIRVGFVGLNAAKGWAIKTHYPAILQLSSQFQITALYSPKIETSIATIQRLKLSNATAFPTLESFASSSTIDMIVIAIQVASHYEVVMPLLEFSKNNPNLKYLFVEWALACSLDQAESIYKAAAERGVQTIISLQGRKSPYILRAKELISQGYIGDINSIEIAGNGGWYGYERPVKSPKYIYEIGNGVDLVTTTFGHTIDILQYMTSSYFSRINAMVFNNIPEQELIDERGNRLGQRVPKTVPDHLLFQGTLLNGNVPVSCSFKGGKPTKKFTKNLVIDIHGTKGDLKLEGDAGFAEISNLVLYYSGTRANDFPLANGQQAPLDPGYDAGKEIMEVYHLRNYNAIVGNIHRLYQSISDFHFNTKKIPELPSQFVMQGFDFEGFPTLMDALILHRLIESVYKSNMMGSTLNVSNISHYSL

In turn, “Gal3p^MC (metabolic coordinator) (from UniProt P13045 1-520)” registered a GAL1p-EGFP fluorescence during growth on galactose in strain SFS6 greater than 5 fold.
